From patent US20240342244A1, “Isthmin Protein Therapeutics for the Treatment of Non-Alcoholic Fatty Liver Disease” (The Board of Trustees of the Leland Stanford Junior …, priority 2021, published 2024)

How the values were obtained:
pAKT^S473 [1] = assay: pAKT S473 signaling in 3T3-F442A cells (phosphokinase array, western blot); format: cell-based
Method: (§1) Western blots and molecular analyses. For western blotting, homogenized tissues or whole-cell lysates, samples were lysed in RIPA buffer containing protease inhibitor cocktail (Roche) and phosphatase inhibitor cocktail (Roche). Cell lysates were centrifuged at 14,000×g for 15 min and supernatants were prepared in 4×LDS Sample Buffer (Invitrogen) and separated by SDS-PAGE and transferred to Immobilon 0.45 μm membranes (Millipore). For Western blotting of plasma samples, 1 μl of plasma was prepared in 2× sample buffer (Invitrogen) with reducing agent, boiled, and analyzed using Western blot against indicated antibody. Protein kinase array (R&D systems ARY003B) was performed according to the manufacturers' description. All antibodies used in this paper are described in STAR methods.

pAKT^S473 [2] = assay: pAKT S473 western blot in human SGBS adipocytes and human primary skeletal muscle cells; format: cell-based
Method: as §1

[3] = system: pAKT^T308, S6^S235/S236, PRAS40^Thr246, ERK1/2, PKA, PDK1, GSK3β; assay: Time-course western blot of intracellular signaling pathways in 3T3-F442A cells; format: cell-based
Method: as §1

SREBP1c, FAS, ACC = assay: Lipogenic protein and gene expression in AML12 hepatocytes; format: cell-based, mouse
Method: (§2) Gene expression analysis. Total RNA from cultured cells or tissues was isolated using TRIzol (Thermo Fischer Scientific) and Rneasy mini kits (QIAGEN). RNA was reverse transcribed using the ABI high capacity cDNA synthesis kit. For qRT-PCR analysis, cDNA, primers and SYBR-green fluorescent dye (ABI) were used. Relative mRNA expression was determined by normalization with Cyclophilin levels using the ΔΔCt method.
as §1

srebp1c = assay: Lipogenic gene and SREBP-1c protein expression in primary adipocytes; format: cell-based, mouse
Method: as §2, §1

DIO mice = assay: Therapeutic ISM1 administration for five days in DIO mice; format: in vivo, mouse; settings: 5 mg/kg for five days
Method: Therapeutic ISM1 recombinant protein administration in vivo. All pharmacologic studies using recombinant ISM1 protein were performed in mice with established diet-induced obesity or non-alcoholic fatty liver disease (NAFLD). For all experiments, male C57BL/6J mice purchased from Jax were fed either a high-fat diet (#D12492, Research Diets) or a NAFLD diet (#D09100310, Research Diets) prior to ISM1 protein injections. In all experiments, mice were mock injected with saline for three days prior to protein or drug injections to prevent stress-induced weight loss. Mice were I.P. injected with vehicle (saline) or indicated doses of ISM1 protein diluted in saline. For the 14-day experiments in NAFLD mice, 7-weeks old mice were fed with NAFLD diet for 3 weeks and then mock injected with saline for 3 days prior to protein injections. The induction of lipid accumulation with NAFLD diet was verified by the significant increase in hepatic lipid levels compared with mice on chow diet at the same time point. […] At the end of the experiments, mice and tissue weights were recorded. […]
Glucose tolerance and insulin tolerance tests. […] Blood glucose levels were measured at 0, 15, 30, 45, 60, 90 and 120 mins. […] Blood glucose levels were measured at 0, 15, 30, 45, 60, 90 and 120 mins.

[4] = Observation of hypoglycemia in overexpression or pharmacological administration studies; format: in vivo, mouse; settings: overexpression or pharmacological administration of ISM1
[5] = insulin 1 nM up to 100 nM with 25 nM or 50 nM ISM1

B1: ISM1: recombinant mouse ISM1 protein with a C-terminal myc-his tag generated in mammalian HEK 293 Expi cells (protein, UniProt A2ATD1 30-454, looked up)
Isthmin-1: SDRQDAAAGNNNLNLESDSTSETSFPLSKEAPEEHQVVHQPFPRQRFPPETGHPSLQRDGPRSFLLDLPNFPDLSKADINGQNPNIQVTIEVVDGPDSEAEKDQHPENKPSWSLPAPDWRAWWQRSLSLARTNSGDQDDKYDSTSDDSNFLSVPRGWDRPAPGHRTFETKEQPEYDSTDGEGDWSLWSVCSVTCGNGNQKRTRSCGYACIATESRTCDRPNCPGIEDTFRTAATEVSLLAGSEEFNATKLFEVDMDSCERWMSCKSEFLKKYMHKVINDLPSCPCSYPTEVAYSTADIFDRIKRKDFRWKDASGPKEKLEIYKPTARYCIRSMLSLESTTLAAQHCCYGDNMQLITRGKGAGTPNLISTEFSAELHYKVDVLPWIICKGDWSRYNEARPPNNGQKCTESPSDEDYIKQFQEAREY
modifications: C-terminal myc-His tag
notes: recombinant mouse ISM1 protein with a C-terminal myc-his tag generated in mammalian HEK 293 Expi cells
What does the source list for B1?
pAKT^S473 bioactivity compared with commercially available ISM1 protein (R&D systems) (pAKT^S473 [1]; 100 nM, 5 min): comparable bioactivities; top hit of phosphokinase array (43 proteins) (pAKT^S473 [1]; 100 nM, 5 min): phosphorylated protein kinase B (PKB)/AKT at S473; dose at which dose-dependent increase in pAKT^S473 phosphorylation starts (pAKT^S473 [1]; increasing doses, 5 min): 50 nM; AKT activity of ISM1 combined with insulin (pAKT^S473 [1]; [5]): additional effect; potentiation of insulin on AKT activity (pAKT^S473 [1]; [5]): no evidence of potentiation; pAKT^S473 induction (pAKT^S473 [2]; human SGBS adipocytes): induced pAKT^S473; pAKT^S473 induction (pAKT^S473 [2]; human primary skeletal muscle cells (HSMC), 100 nM, 5 min): induced pAKT^S473; activation of S6^S235/S236 and PRAS40^Thr246 ([3]; 100 nM, time course): time-dependent activation; pAKT^T308 phosphorylation ([3]; 100 nM, time course): phosphorylation at pAKT^T308 at all time points; ERK1/2 phosphorylation ([3]; 100 nM, vs 20 ng/ml PDGF-ββ): does not evoke as robust ERK1/2 phosphorylation as the known mitogen PDGF-ββ; ERK1/2 phosphorylation ([3]; 200 nM ISM1 vs 100 nM insulin): prolonged and more potent phosphorylation of ERK1/2 than insulin; activity on other pathways such as PKA, PDK1 or GSK3P ([3]; even at 200 nM doses): does not display any activity or displays only weak activity; SREBP1c cleavage, FAS and ACC protein expression (SREBP1c, FAS, ACC; 50 nM insulin, with or without ISM1, 24 h): counteracts the insulin-induced increase in SREBP1c cleavage to the mature form; ChREBPβ and PGC1β gene expression (SREBP1c, FAS, ACC; AML12 hepatocytes): reduced; fas, acc and scd1 gene expression (SREBP1c, FAS, ACC; in the presence of insulin, 6 h): significantly reduced; cleaved SREBP-1c protein levels (srebp1c; insulin-stimulated conditions): potently reduces the cleaved SREBP-1c protein levels; srebp1c, acc, fas and ChREBPβ gene expression (srebp1c; insulin-stimulated conditions): suppressing srebp1c and the lipogenesis target genes acc, fas, and ChREBPβ; srebp1c expression under basal conditions (srebp1c; primary adipocytes): no induction; insulin tolerance (ITT) (DIO mice): modest improvement; ad lib glucose levels (DIO mice; vs vehicle): no difference; hypoglycemia [4]: do not observe hypoglycemia
